How the values were obtained:
[1] = molecular target: A^k molecule (Mus musculus, UniProt P01910+P06343); assay: Competitive inhibition of radiolabelled peptide binding to affinity purified MHC class II A^k; settings: 125I-labelled marker HEL(46-61)Y, cold peptide >550 μm, pH 5
Experimental: (§1) Peptide-MHC complexes were obtained by incubating ^125I-labelled peptide (10-100 nM) with affinity purified MHC class II molecules (2- 10 μM) at room temperature for 3 days (S. Mouritsen, J Immunol. 148, 1438-1444, 1992). The following peptides were used as radiolabelled markers of binding: Hb(64-76)Y which binds strongly to the E^k molecule and HEL(46-61)Y which binds strongly to the A^k molecule. These complexes were incubated with large amounts of cold non radiolabelled peptide (>550 μm) which should be sufficient to inhibit totally all immunologically relevant MHC class II binding. Either the same peptides were used or were three different overlapping peptides representing the flanking regions as well as the entire OVA(325-336) sequence, containing the T cell epitope, which was substituted into ubiquitin (see Example 2). The three peptides were: TITLEPSQAVHAA (U(12-26)), PSQAVHAAHAEINEKE (U(19-34)) and HAEINEKEGIPPDQQ (U(27-41)). The reaction buffer contained 8 mM citrate, […], and 0.05% NP-40 (pH 5) and peptide-MHC class II complexes were separated (in duplicate) from free peptide by gel filtration using G25 spun columns. Both the radioaictivities of the excluded “void” volume and of the included “void” were measured by gamma spectrometry. The competitive inhibition of maximal binding (in percent) by addition of cold peptide was calculated.

[2] = system: E^k molecule; assay: Competitive inhibition of radiolabelled peptide binding to affinity purified MHC class II E^k; set-up: species or system mouse; settings: 125I-labelled marker Hb(64-76)Y, cold peptide >550 μm, pH 5
Experimental: as §1

Substance	competitive inhibition of maximal binding by addition of cold peptide [1]	competitive inhibition of maximal binding by addition of cold peptide [2]
HEL(46-61): marker peptide which binds strongly to the A^k molecule; cold version used as competitor [reference compound]	97.4%	0.0%
PSQAVHAAHAEINEKE [U(19-34), overlapping peptide of the OVA(325-336) region substituted into ubiquitin]	44.6%	12.2%
TITLEPSQAVHAA [U(12-26), overlapping peptide of the OVA(325-336) region substituted into ubiquitin]	35.3%	45.6%
HAEINEKEGIPPDQQ [U(27-41), overlapping peptide of the OVA(325-336) region substituted into ubiquitin]	7.8%	0.0%

Reference: patent US20020090379A1, “INDUCING ANTIBODY RESPONSE AGAINST SELF-PROTEINS WITH THE AID OF FOREIGN T-CELL EPITOPES” (priority 1993, published 2002)
